We go through one molecule from patent US20250000992A1 (Eli Lilly, published 2025).

This experiment concerns the target T1, Sortilin receptor on HEK293 cells (UniProt Q99523 78-831, limits assumed).
T1 construct: whole, on cells
Briefly: +/- matrix drawn left of the bar chart (Cathepsin D ELISA, HEK293 cells); the binding assay behind the marks is not given. In general terms: In an ELISA, binding on a coated surface is turned into a signal by an enzyme label.

B1: His-PGRN (ligand)
single chain: HHHHHHGGGGQGGGGQGGGGQENLYFQSGGGGQTRCPDGQFCPVACCLDPGGASYSCCRPLLDKWPTTLSRHLGGPCQVDAHCSAGHSCIFTVSGTSSCCPFPEAVACGDGHHCCPRGFHCSADGRSCFQRSGNNSVGAIQCPDSQFECPDFSTCCVMVDGSWGCCPMPQASCCEDRVHCCPHGAFCDLVHTRCITPTGTHPLAKKLPAQRTNRAVALSSSVMCPDARSRCPDGSTCCELPSGKYGCCPMPNATCCSDHLHCCPQDTVCDLIQSKCLSKENATTDLLTKLPAHTVGDVKCDMEVSCPDGYTCCRLQSGAWGCCPFTQAVCCEDHIHCCPAGFTCDTQKGTCEQGPHQVPWMEKAPAHLSLPDPQALKRDVPCDNVSSCPSSDTCCQLTSGEWGCCPIPEAVCCSDHQHCCPQGYTCVAEGQCQRGSEIVAGLEKMPARRASLSHPRDIGCDQHTSCPVGQTCCPSLGGSWACCQLPHAVCCEDRQHCCPAGYTCNVKARSCEKEVVSAQPATFLARSPHVGVKDVECGEGHFCHDNQTCCRDNRQGWACCPYRQGVCCADRRHCCPAGFRCAARGTKCLRREAPRWDAPLRDPALRQLL
notes: 55; also called His tagged PGRN; His-Tagged PGRN
For the molecule B1, the binding result is listed as “binds”.
